Measurements reported in article PMC8406324, “Structural Basis for a Neutralizing Antibody Response Elicited by a Recombinant Hantaan Virus Gn Immunogen” (mBio, 2021).

B1: Fab nnHTN-Gn2 (Fab, V domains shown)
VH: QSLEESGGRLVTPGTPLTLTCTVSGFSLSNYNMQWVRQAPGKGLEWIGIVYTGGVAWYARWAKGRFTISRTSTTVDLKITSPTTEDTATYFCARAYTSNSDIVFDPWGPGTLVTVSS
VL: GQVLTQTPASVSAAVGGTVTIKCQASQSVSTALAWYQQKPGQRPKLLIYLASTLTSGVPSRFKGSGSGTEFTLTISGVECDDAATYYCQQGYSYSNVDNSFGGGTEVVVK
notes: also called Fab nnHTNV-Gn2
B2: Fab HTN-Gn1 (Fab, V domains shown)
VH: QSLVESGGDLVKPEGSLTLTCTASGFSFSSTHWICWVRQAPGKGLEWIACIYVGNTYDSYYANWAKGRFTISKTSSTTVTLQMTTLTAADTATYFCARSGSVFGVVSLWGPGTLVTVSS
VL: GQVLTQTPASVSEPVEGTVTIKCQASQSINNWLSWYQQRPGQPPKLLIYDASTVASGVSSRFKGSGSGTEFTLTISDLECADAATYACQSYGYGISITDNSAFGGGTEVVVR
notes: also called HTN-Gn1-Fab; HTNV-Gn1-Fab

Molecular target: T1, recombinant HTNV Gn ectodomain (residues 18 to 371) (Hantaan virus (Orthohantavirus …))
T1 construct: also called N-terminal ectodomain of HTNV Gn; soluble HTNV Gn ectodomain
Assay: crystal structure
Conditions: both partners purified

Row | Binder | binding result
1 | B1 | binds
2 | B2 | binds
